Data reported in PMC4164784, “4E-BPs require non-canonical 4E-binding motifs and a lateral surface of eIF4E to repress translation” (Nature Communications, 2014).
No end group written: not given here.

Columns and labels:
[1] = tested on: endogenous eIF4E and HA-tagged 4E-BPs in S2 cells; experiment: Immunofluorescence localization in S2 cells; type: cell-based, Drosophila melanogaster
CRM1 = tested on: CRM1; set-up: method as in PMID 15465908, PMID 10856257, PMID 9190288; settings: cited from earlier work
[2] = target: T1, eIF4E–eIF4G complex (eIF4E WT; eIF4G residues 578–650) (Drosophila melanogaster, UniProt P48598); experiment: Competition assay, displacement of GST-eIF4G from preassembled eIF4E (WT)–eIF4G complexes; type: biochemical; settings: Fig. 5a,c; fivefold molar excess of MBP-tagged competitor, 30 min at 4 °C, m7GTP or Strep-Tactin pull down
T1 construct: full-length eIF4E (WT or the II-AA mutant) containing an N-terminal SNH-tag was coexpressed; made in house; host or cells: E. coli BL21 Star (DE3), coexpression
T1 sequence (P48598 1-248 isoform P48598-2): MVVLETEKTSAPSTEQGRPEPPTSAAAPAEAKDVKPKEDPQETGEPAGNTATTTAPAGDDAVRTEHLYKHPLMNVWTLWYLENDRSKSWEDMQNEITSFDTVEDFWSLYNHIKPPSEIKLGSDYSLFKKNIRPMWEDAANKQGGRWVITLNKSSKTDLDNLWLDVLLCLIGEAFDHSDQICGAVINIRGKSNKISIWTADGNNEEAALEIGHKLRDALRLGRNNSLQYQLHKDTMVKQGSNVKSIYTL
Protocol: (§1) For the competition assays shown in Figs 5a,c and 6a,b, complexes containing SHN- or MBP-tagged eIF4E (WT or II-AA mutant) bound to GST-eIF4G (residues 578–650), GST-Thor (full length), GST-4E-T (residues 1–58) or GST-CUP (311–440) were obtained by coexpressing the corresponding proteins in E. coli BL21 (DE3) STAR cells (30 ml culture). The cells were resuspended in lysis buffer (5 ml) that was supplemented with EDTA-free protease inhibitor (Roche) and 1 mg ml^−1 lysozyme and lysed by sonication. The cleared lysates were incubated with 400 μl of Protino Glutathione Agarose 4B (Macherey-Nagel) for 1 h. The beads were washed three times with lysis buffer, and the proteins were eluted after 10 min of incubation with lysis buffer containing 25 mM L-glutathione. The protein complexes were stored at −20 °C or used in competition assays.
The purified recombinant complexes were mixed with excess amounts of the indicated purified competitor proteins (Fig. 5c) or with bacterial lysates expressing the competitor proteins (Figs 5a and 6) and incubated for 30 min at 4 °C. After incubation, 20 μl of immobilized γ-Aminophenyl-m^7GTP or Strep-Tactin Sepharose (IBA), were added to the samples and incubated for another 40 min at 4 °C. The beads were washed three times with lysis buffer and eluted with lysis buffer containing 2.5 mM desthiobiotin (Strep-Tactin Sepharose) or with 20 μl of SDS–PAGE loading buffer (Aminophenyl-m^7GTP beads). The proteins were analyzed by 10–15% SDS–PAGE followed by staining with Coomassie blue staining. […]

eIF4E (residues 69–248) = experiment: MBP pull-down of purified eIF4E (69–248); type: binding, Drosophila melanogaster; settings: MBP- and GB1-tagged fragments, 1 h at 4 °C, SDS–PAGE Coomassie, no eIF4G present
Protocol: In Fig. 2c, eIF4G (residues 578–650) and the C+NC peptides of CUP, Thor and 4E-T were expressed with a N-terminal MBP and a C-terminal GB1 tag. The bacterial cells were resuspended in 5 ml of lysis buffer containing 50 mM HEPES (pH 7.2), 200 mM NaCl and 2 mM DTT and lysed by sonication. Purified eIF4E (residues 69–248) was added to the cleared lysates (40–80 μl), adjusted to 0.3 ml with lysis buffer and incubated with 30 μL of amylose resin for 1 h at 4 °C. The beads were washed three times with lysis buffer and eluted with 64 μl of the same buffer containing 25 mM maltose. The proteins were analyzed by 15% SDS–PAGE followed by Coomassie blue staining.

[3] = tested on: eIF4E (WT) bound to GST-CUP, GST-Thor, GST-4E-T or GST-eIF4G; experiment: Competition by MBP-eIF4G with 4E-BPs or eIF4G bound to WT eIF4E; type: biochemical, Drosophila melanogaster; settings: excess MBP-eIF4G (residues 578–650), 30 min at 4 °C, Strep-Tactin pull down
Protocol: as §1
(§2) The purified recombinant complexes were mixed with excess amounts of the indicated purified competitor proteins (Fig. 5c) or with bacterial lysates expressing the competitor proteins (Figs 5a and 6) and incubated for 30 min at 4 °C. After incubation, 20 μl of immobilized γ-Aminophenyl-m^7GTP or Strep-Tactin Sepharose (IBA), were added to the samples and incubated for another 40 min at 4 °C. […] The proteins were analyzed by 10–15% SDS–PAGE followed by staining with Coomassie blue staining.

[4] = tested on: eIF4E II-AA mutant bound to GST-4E-BP; experiment: Competition by MBP-eIF4G with 4E-BPs bound to eIF4E II-AA mutant; type: biochemical, Drosophila melanogaster; settings: 30 min at 4 °C
Protocol: as §1, §2

[5] = tested on: eIF4E W106A (dorsal surface mutant); settings: known effect of W106A substitution; cited from earlier work
[6] = tested on: eIF4E II-AA mutant (full length); experiment: GST/MBP pull-down of full-length eIF4E II-AA mutant, coexpressed in E. coli; type: binding, Drosophila melanogaster; settings: recombinant CUP (311–440), Thor (full length), 4E-T (1–58) or eIF4G (578–650), WT or mutant, SDS–PAGE
Protocol: For the pull-down assays shown in Fig. 3 and Supplementary Fig. 6a, the full-length His6- or SHN-tagged eIF4E (WT or II-AA mutant) was coexpressed with GST or MBP-tagged protein fragments, including CUP (residues 311–440), Thor (full length), 4E-T (residues 1–58) or eIF4G (residues 578–650) in E. coli BL21 (DE3) STAR cells in autoinducing medium[44] overnight at 20 °C. The cells were resuspended in lysis buffer (20 mM Tris–HCl (pH 7.5), 100 mM NaCl, 1 mM DTT) supplemented with EDTA-free protease inhibitor (Roche) and lysed by sonication. The cleared lysates were incubated for 1 h with 20 μl of Protino Glutathione Agarose 4B beads (Macherey-Nagel) or amylose resin (New England Biolabs). The beads were washed three times with lysis buffer, and the bound proteins were eluted with lysis buffer containing 25 mM L-glutathione or 25 mM maltose for 15 min. The proteins were analyzed by 10–15% SDS–PAGE followed by Coomassie blue staining.

endogenous eIF4E = experiment: Coimmunoprecipitation / m7GTP pull-down with endogenous eIF4E in S2 cell lysates; type: cell-based, Drosophila melanogaster; settings: western blot
Summary of the method: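 S2 cell lysates expressing HA-tagged 4E-BPs (CUP, Thor, 4E-T), eIF4G or mutants, immunoprecipitated with anti-eIF4E or anti-HA antibodies, or pulled down with m7GTP beads for 1 h at 4 °C. Washes in NET buffer (50 mM Tris pH 7.4, 150 mM NaCl, 1 mM EDTA, 0.1% Triton X-100). Bound proteins detected by anti-HA/anti-eIF4E western blot; pre-immune serum and HA-MBP as negative controls.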

[7] = tested on: eIF4E II-AA (lateral surface mutant); experiment: Coimmunoprecipitation with HA-eIF4E II-AA in S2 cells; type: cell-based, Drosophila melanogaster; settings: HA-eIF4E II-AA vs WT, western blot
Protocol: The coimmunoprecipitations assays were performed as previously described. For the pull downs using m^7GTP beads, 25 μl of immobilized γ-aminophenyl-m^7GTP (C10-spacer—Jena Bioscience) beads was added to the cell lysates and the mixtures were rotated for 1 h at 4 °C. The beads were washed three times with NET buffer (50 mM Tris (pH 7.4), 150 mM NaCl, 1 mM EDTA and 0.1% Triton X-100). The bound proteins were eluted with 2 × SDS–polyacrylamide gel electrophoresis (SDS–PAGE) sample buffer and analyzed by western blotting (WB). All of the WB experiments were developed with the ECL western blotting detection system (GE Healthcare) as recommended by the manufacturer. The antibodies used in this study are listed in Supplementary Table 2.

## CCC(=C/[C@H](C)C/C=C/C(C)=C/[C@@H](C)C(=O)[C@@H](C)[C@H](O)[C@@H](C)C/C(C)=C/C(=O)O)/C=C/[C@@H]1OC(=O)C=C[C@@H]1C [LMB, Leptomycin B, reference compound]
[1]; S2 cells, LMB 100 nM, 12 h
  nuclear accumulation of 4E-BP upon LMB (in words): induced the nuclear accumulation of CUP and 4E-T proteins
CRM1
  inhibition of nuclear export by CRM1 (in words): inhibits nuclear export by CRM1

## CUP NC: CUP residues 362–376, non-canonical motif, MBP/GB1 fusion (IELEGRLRRMNIWRT; also: MBP/GB1 fusion; UniProt Q9VMA3 362-376, looked up, fragment)
[2]
  competition with eIF4G for eIF4E WT (in words): did not compete with eIF4G
eIF4E (residues 69–248)
  pull down of purified eIF4E (in words): bind to eIF4E in the absence of eIF4G

B1: MBP-eIF4G: MBP-eIF4G (residues 578–650) (protein)
chain: PETTLNDKQDSTDLKVKVSAKISSIINYNEGQWSPNNPSGKKQYDREQLLQLREVKASRIQPEVKNVSILPQP
modifications: left off: MBP, N-terminal, kept | GB1, C-terminal, kept
[3]
  displacement of proteins bound to WT eIF4E (in words): did not displace CUP, Thor, 4E-T or eIF4G bound to WT eIF4E
[4]; excess MBP-eIF4G (residues 578–650) vs GST-CUP (311–440)
  displacement of CUP bound to eIF4E II-AA (in words): partially displaced CUP
[4]; excess MBP-eIF4G (residues 578–650) vs GST-Thor (full length)
  displacement of Thor bound to eIF4E II-AA (in words): completely displaced full-length Thor

B2: CUP: Dm CUP (1–1117), Q9VMA3; residues 311–440 in pull-down assays (protein)
chain: MQMAEAEQENGAGALKIATNAGATDRPAHQQLPLPVEDQQDEVLTPAEKGKFEYPPPPPPPTPVQAPLATKATALNASQEHDDDEANSEKWEDPCAPPPPPPLPTSAFLATGLGYLKLPAFKLKDALEKAITKLEANKRTLKASPESSRSIKNKNVVALEMLPRRSNPETIGDGSMLASTSTAVMLQTKKPAVIVEMERRCKIINLLAKQNQILESISGEAIPMHGPSKHLHEDEGLTLQVLSARASTPYTQPSSMLSCTAVSCDLEHDSPRKQVASKEAVPEQQSSQVQQKRPPSTGIHKPGSLRAPKAVRPTTAPVVSSKPVKSYTRSRLMDIRNGMFNALMHRSKESFVMPRIATCDDIELEGRLRRMNIWRTSDGTRFRTRSTTANLNMNNNNNNECMPAFFKNKNKPNLISDESIIQSQPPQPQTEFQDPAIVNQRRIGSGRLNHSKWGYNDEDYHSYHNGKSQHMEEVNSKNSKNMTVLQFFDNGEISSQPQRRPNTPVMGMSINRSENDTLHSNESSEDLSRANENYVKRVMSGFLVVSKPKSRDVEDRHHRRYRNQNEEPEWFSCGPTSRLDTIELCGFDEDEEKMLKEGNKNHGLGETERETSKQKMDHKYKWTHAEPMGRSKYMPKHDTNNNHNVENMNNVMATEHQQQKEEKRPGSGRSFQFDKFNQSQQNYESSSYVNHQQPPQTQPQQMQQQSNTNTNNSKFMSFFANEGNSSSSSLNEFFKQAINQGHGNNPEQPKSLGHIGQMPSVDQLEAKWRRNSLNNVGETANKQTDNFQKLIGSLSSAKPQSQAVGYDAISNFIMQQQQYQQQQQKQHLIIQQQQQHTAFLASLQLKAILGRADTQLLLLRLTKGEISKHGLLVQLANPRLTDMDREAITAVLQFTNTQQQQQQHKQQLDMLSSTVIASQLQNLHNLAIVQQTLAARQQPQHNPQTQAPHQLSQEDLQAHANVIMRNAVMKRKIEEQTSKLINGGAKHQAQQQYLNRGQQRQARPDANSNALLHALISGGGNNHASGYPMNGQPQKHHSNLRFGDNQNFQSFESNQPHFATQYKQQYQQSQQQHPHQQPQQLNSLHQNNAGAVNSFNKAQMQAQSAISMLPNSGDEFH
modifications: left off: GFP, end not stated, kept
notes: Dm CUP (1–1117), Q9VMA3; residues 311–440 in pull-down assays
[5]
  binding to eIF4E W106A (in words): abolishes the binding
[6]
  binding to eIF4E II-AA mutant (in words): pulled down comparable amounts of WT and mutant eIF4E
Endogenous eIF4E
  interaction with endogenous eIF4E (in words): interacted with endogenous eIF4E
[1]; S2 cells expressing 4E-BP or mutant, LMB 100 nM, 12 h
  nuclear accumulation of endogenous eIF4E upon LMB (in words): endogenous eIF4E accumulated in the nucleus
[1]; S2 cells overexpressing 4E-BP or mutant, −LMB
  localization of endogenous eIF4E (in words): evenly distributed in the cytoplasm
[1]; S2 cells, LMB 100 nM, 12 h
  nuclear accumulation of 4E-BP upon LMB (in words): nuclear accumulation
[1]; S2 cells, steady-state, −LMB
  localization of the 4E-BP (in words): distributed evenly throughout the cytoplasm
[7]
  association with eIF4E II-AA (in words): disrupted the association
